Laboratory results as given in publication PMC12139721.

Molecular target: CUL5-RBX2 (human | mouse) (UniProt Q93034)
Assay: SEC + native MS

Chain of UniProt Q93034 (Q93034 whole entry, chain 1 of 2): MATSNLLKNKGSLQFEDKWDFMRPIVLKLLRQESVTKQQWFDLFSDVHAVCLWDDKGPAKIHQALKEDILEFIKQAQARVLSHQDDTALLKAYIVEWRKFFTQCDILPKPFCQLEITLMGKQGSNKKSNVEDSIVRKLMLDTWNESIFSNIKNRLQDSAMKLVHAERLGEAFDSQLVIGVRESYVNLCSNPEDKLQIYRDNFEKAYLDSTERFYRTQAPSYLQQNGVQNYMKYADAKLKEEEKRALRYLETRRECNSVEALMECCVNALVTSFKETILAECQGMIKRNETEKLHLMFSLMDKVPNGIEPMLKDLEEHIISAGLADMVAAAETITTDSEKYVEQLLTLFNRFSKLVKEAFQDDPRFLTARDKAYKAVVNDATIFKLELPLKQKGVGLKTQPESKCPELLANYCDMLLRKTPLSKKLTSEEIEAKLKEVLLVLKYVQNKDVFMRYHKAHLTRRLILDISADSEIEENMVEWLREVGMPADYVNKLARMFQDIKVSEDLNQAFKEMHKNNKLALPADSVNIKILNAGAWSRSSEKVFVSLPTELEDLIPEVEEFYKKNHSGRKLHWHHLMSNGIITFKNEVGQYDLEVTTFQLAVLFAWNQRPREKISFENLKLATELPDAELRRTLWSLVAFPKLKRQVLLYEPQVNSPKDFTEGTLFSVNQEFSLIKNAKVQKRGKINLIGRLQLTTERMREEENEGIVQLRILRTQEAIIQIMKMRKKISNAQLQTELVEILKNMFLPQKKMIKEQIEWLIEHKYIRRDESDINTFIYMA
Chain of UniProt Q93034 (Q9WTZ1 whole entry, chain 2 of 2, further chain): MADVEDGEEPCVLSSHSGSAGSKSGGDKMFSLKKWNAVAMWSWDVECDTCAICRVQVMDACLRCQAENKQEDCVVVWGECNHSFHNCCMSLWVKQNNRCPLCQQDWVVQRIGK

A stoichiometry N of 1 was found for “PCMTD1-ELOBC (from UniProt Q96MG8;Q15370;Q15369) (complex)” in this work.
